What was measured:
[1] = target: T1, Hcp (hemolysin co-regulated protein, T6SS needle protein) of Acinetobacter baumannii AB5075, recombinant, … (Acinetobacter baumannii (strain AB5075)); assay: screening of hybridoma clones for binding to Hcp antigen
T1 construct: Cloned NcoI/XhoI into pET22b, overexpressed in E. coli and purified on a nickel column; also called full-length Hcp protein; purified Hcp protein
T1 chain: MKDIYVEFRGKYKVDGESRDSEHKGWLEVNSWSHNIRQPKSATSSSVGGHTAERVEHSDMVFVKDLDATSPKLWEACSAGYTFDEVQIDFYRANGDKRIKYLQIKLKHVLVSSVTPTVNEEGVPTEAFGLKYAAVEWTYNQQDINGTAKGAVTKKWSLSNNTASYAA

[2] = target: T2, Hcp peptide DGESRDSEHKGWLEV (Acinetobacter baumannii); assay: peptide ELISA, peptide on plate, anti-mouse HRP, OD450
T2 peptide: DGESRDSEHKGWLEV

[3] = target: T3, Hcp peptide AFGLKYAAVEWTYNQ (Acinetobacter baumannii); assay: as above
T3 peptide: AFGLKYAAVEWTYNQ

[4] = target: T4, Hcp peptide EVQIDFYRANGDKRI (Acinetobacter baumannii); assay: as above
T4 peptide: EVQIDFYRANGDKRI

[5] = target: T5, Hcp peptide IRQPKSATSSSVGGH (Acinetobacter baumannii); assay: as above
T5 peptide: IRQPKSATSSSVGGH

[6] = target: T6, Hcp peptide EHKGWLEVNSWSHN (Acinetobacter baumannii); assay: as above
T6 peptide: EHKGWLEVNSWSHN

[7] = target: T7, Hcp peptide TSSSVGGHTAERVEH (Acinetobacter baumannii); assay: as above
T7 peptide: TSSSVGGHTAERVEH

[8] = target: T8, Hcp peptide HSDMVFVKDLDATSP (Acinetobacter baumannii); assay: as above
T8 peptide: HSDMVFVKDLDATSP

[9] = target: T9, Hcp peptide VNSWSHNIRQPKSAT (Acinetobacter baumannii); assay: as above
T9 peptide: VNSWSHNIRQPKSAT

[10] = target: T10, Hcp peptide RANGDKRIKYLQIKL (Acinetobacter baumannii); assay: as above
T10 peptide: RANGDKRIKYLQIKL

[11] = target: T11, Hcp peptide EEGVPTEAFGLKYAA (Acinetobacter baumannii); assay: as above
T11 peptide: EEGVPTEAFGLKYAA

[12] = target: T12, Hcp peptide PKLWEACSAGYTFDE (Acinetobacter baumannii); assay: as above
T12 peptide: PKLWEACSAGYTFDE

[13] = target: T13, Hcp peptide AKGAVTKKWSLSNNT (Acinetobacter baumannii); assay: as above
T13 peptide: AKGAVTKKWSLSNNT

[14] = target: T14, Hcp peptide LKHVLVSSVTPTVNE (Acinetobacter baumannii); assay: as above
T14 peptide: LKHVLVSSVTPTVNE

[15] = target: T15, Hcp peptide KDLDATSPKLWEACS (Acinetobacter baumannii); assay: as above
T15 peptide: KDLDATSPKLWEACS

[16] = target: T16, Hcp peptide IKYLQIKLKHVLVSS (Acinetobacter baumannii); assay: as above
T16 peptide: IKYLQIKLKHVLVSS

[17] = target: T17, Hcp peptide AVEWTYNQQDINGTA (Acinetobacter baumannii); assay: as above
T17 peptide: AVEWTYNQQDINGTA

[18] = target: T18, Hcp peptide #1 MKDIYVEFRGKYKVD (Acinetobacter baumannii); assay: as above
T18 construct: also called amino terminus peptide; N-terminus peptide
T18 peptide: MKDIYVEFRGKYKVD

[19] = target: T19, Hcp peptide KWSLSNNTASYAA (Acinetobacter baumannii); assay: as above
T19 peptide: KWSLSNNTASYAA

[20] = target: T20, Hcp peptide SVTPTVNEEGVPTEA (Acinetobacter baumannii); assay: as above
T20 peptide: SVTPTVNEEGVPTEA

[21] = target: T21, Hcp peptide QQDINGTAKGAVTKK (Acinetobacter baumannii); assay: as above
T21 peptide: QQDINGTAKGAVTKK

[22] = target: T22, Hcp peptide SAGYTFDEVQIDFYR (Acinetobacter baumannii); assay: as above
T22 peptide: SAGYTFDEVQIDFYR

[23] = target: T23, Hcp peptide HTAERVEHSDMVFVK (Acinetobacter baumannii); assay: as above
T23 peptide: HTAERVEHSDMVFVK

[24] = target: T24, Hcp peptide FRGKYKVDGESRDSE (Acinetobacter baumannii); assay: as above
T24 peptide: FRGKYKVDGESRDSE

Measured: binding result

B1: 13F7 anti-Hcp monoclonal antibody (antibody, V domains shown)
VH: EVQLQESGGGLVQPGGSMKLSCVVSGFIFSSYWMSWVRQSPEKGLEWLAEIRLKSDNYVTLYAESVKGKFTISRDDSKSRLFLQMNTLRAEDTGIYYCTRSYHALDYWGQGTSVTVSS
VL: DIVMAQSPSSLNVSAGDKVTMSCKSSQSLLNSGNQRNYLAWYQQKPGQPPKLLIYGASTRESGVPDRFTGSGSGTDFTLTISSVQAEDLAVYYCQNDHIYPFTFGSGTKLEIK
notes: Mouse monoclonal antibody from a hybridoma; also called αHcp; 13F7 αHcp antibody
binds: [1] | [18]
no binding: all other assays above
